Measurements as given in PMC3652601, “Structure of a dimeric crenarchaeal Cas6 enzyme with an atypical active site for CRISPR RNA processing” (Biochemical Journal, 2013).
Where a chain is given by its changes, count along the chain named. In names and notes the source's numbering stands.

Experiments:
[1] = biological target: the molecule itself; assay: crystal structure; selenomethionine-labelled methylated protein; 0.05 M bicine pH 9.1, 28% PEG 3350; SAD, 2.8 Å; four monomers in the asymmetric unit; interface analysed with PDBePISA
[2] = biological target: the molecule itself; assay: SEC; calibrated gel filtration, HiLoad 26/600 Superdex 200, 20 mM Tris/HCl pH 7.5, 1 M NaCl; calibrated with Bio-Rad standards

B1: selenomethionine-labelled methylated SsoCas6 (enzyme, Sulfolobus solfataricus)
chain: PLIFKIGYNVIPLQDVILPTPSSKVLKYLIQSGKLLPSLNNLITSRDKYKPIFISHLGLNQRRIFQTNGNLKTISRGSKLSSTIAFSTQVNVLPELDEGVFETIYGKFHITIESVEIVEVEKLKEEVEKHMNDNIRVRFISPTLLSSKVLLPPSLSERYKRVNAGYSTLPSVGLIVAYAYNVYCNLIGKKEVEVRAFKFGVISNALSRIIGYDLHPVTIVIGEDSKGNLRKARGVMGWIEFDIPDEKLKRRALRYLLASSYLGIGRSRGIGFGEIKLEFIKREENH
modifications: (L)-selenomethionine derivative; surface lysine residues reductively methylated
notes: Cas6 paralogue Sso1437 of Sulfolobus solfataricus; residues 43-50 and 90-93 disordered in the crystal; Same construct as m1, labelled with selenomethionine and methylated for crystallography; also called (L)-selenomethionine derivative of SsoCas6; not shown: His6, N-terminal, cleaved
binding result [1]: binds

B2: Sulfolobus solfataricus Cas6 (Sso1437), wild type (enzyme)
chain: B1 chain
notes: Cas6 paralogue Sso1437 of Sulfolobus solfataricus, gene amplified by PCR from genomic DNA; expected molecular mass of the monomer 33 kDa; Cloned into pET151-TOPO; also called SsoCas6; wild-type (WT) enzyme; source: E. coli C43(DE3), purified (Ni-NTA, TEV cleavage, Superdex 75 gel filtration); not shown: His6, N-terminal, cleaved
stoichiometry N [2]: 2

B3: SsoCas6 K28H variant (enzyme, Sulfolobus solfataricus)
chain: B1 chain with K27H
notes: Cas6 paralogue Sso1437 of Sulfolobus solfataricus with K28H; Used in the calibrated gel filtration in place of the wild type; source: E. coli, purified according to the same protocol as the wild type; not shown: His6, N-terminal, cleaved
stoichiometry N [2]: 2
